Experimental data as given in the RNAGym collection of RNA variant scans (doi:10.7554/elife.80360).

B1: Hairpin Ribozyme (parent)
chain: GUCCUCUUUCACGUGCGCGUGAAAGAGAGAAGUGAACCAGAGAAACACACGUUGUGGUAUAUUACCUGGUA

Variants of: B1
Experiment: self-cleavage, relative activity (ratio to wild type); higher = more cleavage; co-transcriptional

Variant	self-cleavage
C16G A61G	0.151
C16G A61U	0.253
C16U C18A	0.985
C16U C18G	0.873
G17A A35U	0.778
C16U G17C	0.985
C16U G17U	0.92
C16A C18G	0.841
C16A C18U	0.98
G15A U52G	0.641
G17A A39C	0.51
C16G G25A	0.612
C16U G54A	0.518
G15C A31C	0.206
G15C C18G	0.863
G15C C18U	0.922
C16U A30U	0.2
C16G A71C	1.35
C16G A71G	1.05
C16G U67A	0.097
G15C U33A	0.0629
C16G A30U	0.0915
C16A A47C	0.365
C16A A47U	0.0731

Variant	self-cleavage
C16A U52G	0.879
G15C A71C	1.29
C16A U20A	0.743
C16A U20G	0.812
C16A U55A	0.221
C16A U55G	0.232
C16A A30G	0.11
G15A G40U	0.111
G15U G42A	0.207
G15U G19U	0.853
G15A C37U	0.699
G15A G29C	0.106
C16G U20G	0.661
C16G U20A	1.02
G17A A30U	0.0442
G17A A30G	0.0738
C16U A24U	1.02
C16U A24G	0.997
G17A A28G	1.14
G15C C66G	0.0808
C16G G68C	0.153
C16U U55A	0.357
C16U U55G	0.219
C16A U62C	0.276

Variant	self-cleavage
C16A U62G	0.154
G15C U20A	0.963
C16G U33G	0.12
C16G U33A	0.105
C16A C66U	0.416
G15A U33A	0.0921
G15A U33C	0.117
G15C G56U	0.113
G15C G56C	0.113
G15C A24U	0.884
G15U U20C	1
G15U A24G	1.12
G15U A24C	1.08
C16G G40A	0.198
C16A G42A	0.366
G15C C16U	1.29
C16U A36U	0.804
C16U A36C	0.789
C16U A64C	0.133
C16A G40U	0.147
C16A A39C	0.484
C16G G32C	0.091
C16A A59G	0.085
G17A A41C	1.38

Variant	self-cleavage
G15U A49U	0.0651
G15U A49C	0.0683
C16A A24U	0.632
G15C A43U	0.126
C16G G54U	0.493
C16G G54A	0.485
C16U U63C	0.165
C16U A22C	0.899
G15C A26C	0.834
G15U A59G	0.161
G15C A47U	0.142
C16U A49C	0.204
C16G G19C	0.618
C16G G19U	0.719
C16A G69U	0.334
G15U G40U	0.206
G15U G40A	0.335
G15C G17U	0.959
G15C A28C	0.407
G15C A28G	1.29
G15C C65U	0.352
G15U U58G	0.711
G15U A71U	0.923
G15U A71G	1.12

Variant	self-cleavage
C16G A31C	0.0855
C16G A31U	0.226
C16A G27C	0.218
C16A G27U	0.202
G15U G34U	1.46
G15A U60C	0.853
C16U U67C	0.283
C16U U67G	0.367
G15U U67C	0.267
G15A U55C	0.225
C16U C48A	0.114
C16A A45G	0.115
C16A A45C	0.123
C16A G34U	1.47
C16A G34A	1.35
G15U C50A	0.274
C16A C37G	0.324
C16A C37A	0.377
C16G C66G	0.0535
G15C A64C	0.162
G15C A64G	0.532
C16A A22C	0.713
C16A G17U	0.944
C16G G56U	0.187

Variant	self-cleavage
C16A C38A	0.203
G15U A61C	0.261
C16G G57U	0.119
G15A G27C	0.146
C16A A64C	0.133
C16U G21A	0.843
C16A U58G	0.736
G15C C38A	0.22
G15C C38G	0.127
C16U A41G	0.809
C16U A41C	1.4
C16G A23U	0.718
G15C G29U	0.174
G15C G29C	0.116
G15C C46U	0.151
C16A G56U	0.151
G17A	1.01
C16G G51C	0.564
C16G G51U	0.803
C16G U52A	1.09
C16G A44G	0.0556
C16A A61C	0.359
C16A A61G	0.203
C16A U33G	0.317

Variant	self-cleavage
G15C A22U	1.01
C16G A64U	0.172
C16G A64G	0.511
C16G A64C	0.161
C16U G51U	1.03
C16U G51C	1.08
G15U G25A	0.703
G15C A61U	0.181
G15C A61G	0.173
C16U U62A	0.18
G15U G29A	0.0502
C16A A31C	0.0433
C16U C50A	0.295
C16U C50G	0.339
G15U G17C	0.881
G15C G51U	0.91
C16A U67G	0.182
G15U U55A	0.304
G15A C66U	0.35
G17A A24U	1.03
G17A A24C	0.894
C16G C37G	0.386
G15U G57A	0.153
